In patent US20260265360A1, “USE OF ANTI-FAM19A5 ANTAGONISTS FOR TREATING HEARING DISORDERS” (NEURACLE SCIENCE CO., LTD., priority 2023, published 2026):

Assays:
[1] = test system: inner hair cells of mouse cochlear explant; experiment: Reversal of FAM19A5-induced inhibition of synaptogenesis (CtBP2 puncta); format: cell-based; conditions: 1 μM FAM19A5 protein plus anti-FAM19A5 antibody, treated 1 DIV, stained 2 DIV
Description: (§1) Cochlear explant were cultured in medium consisting of plating media, which consist of Neurobasal media (Invitrogen), 1% N2 supplement, and 10 μg/mL Ampicillin with culture media with additional 1% FBS.
(§2) Postnatal day 4-5 (P4-5) C57BL/6 mice were sacrificed for inner ear dissection. Mouse head was bisected, and brain tissue was removed. Cochlea was carefully separated the from the extraneous bones in ice-cold HBSS (5 mM HEPES/1.3 mM CaCl2), 0.9 mM MgCl2, pH 7.4) or External solution (1.2 mM CaCl2), 1 mM MgCl2, 5 mM HEPES in HBSS). Then the stria vascularis and spiral bone plate was removed, and cochlea was cut into two to three sections. […]
(§3) Mouse cochlear explant cultures were treated with FAM19A5, FAM19A5 combined with a FAM19A5 antagonist (e.g., described herein, e.g., 1-30 antibody), or a FAM19A5 antagonist (e.g., described herein, e.g., 1-30 antibody) alone at 1 DIV to determine the level of synaptogenesis at 2 DIV by immunostaining CtBP2, a ribbon synapse marker. To quantify the number of CtBP2 puncta of individual inner hair cells, z-stack confocal images were exported in “multi-page” and the number of CtBP2 puncta from each individual inner hair cells were measured using ROI manger and multi-point tool from Fiji (Image J). Number of CtBP2 puncta from five individual inner hair cells were counted per image and 3 z-stack images were measured from each treatment group. […]

[2] = test system: C57BL/6 mice; experiment: Effect of anti-FAM19A5 antibody administration itself on hearing ability (ABR threshold); format: in vivo, mouse; conditions: 30 mg/kg i.v. once weekly; 2 weeks post antibody administration; no noise exposure
Description: FIGS. 5A, 5B, and 5C show the effect of FAM19A5 antagonist administration on hearing ability in mice. The effect on hearing was assessed by measuring auditory brainstem response (ABR) generated after FAM19A5 antagonist administration. FIG. 5A provides a schematic of the experimental design. As shown, anti-FAM19A5 antibody (1-30) or control human IgG antibody was administered to the mice intravenously once a week (30 mg/kg per dose). ABR (i.e., hearing test) was measured prior to the initial administration of the antibodies and then at day 1, week 2, and 8 week post antibody administration. FIG. 5B provides comparison of ABR threshold in the mice prior to the initial administration of the anti-FAM19A5 antibody (box) or the control IgG antibody (circle). […] In both FIGS. 5B and 5C, the ABR threshold was measured at a frequency ranging from 0 to 64 kHz.
To assess whether the administration of a FAM19A5 antagonist itself has any effect on hearing, C57BL/6 mice (8 weeks old) were intravenously administered with either an anti-FAM19A5 antibody (1-30 antibody) or a control human IgG antibody. […] To assess hearing, auditory brainstem response (ABR) threshold was measured prior to the initial antibody administration and then at day 1, 2 weeks, and 8 weeks post antibody administration.

[3] = test system: inner hair cells of mouse cochlear explants; experiment: Promotion of synaptogenesis (CtBP2 puncta); format: cell-based; conditions: antibody 1 μM
Description: as §1, §2, §3

[4] = test system: FAM19A5 mutants M1 to M8; experiment: Epitope mapping ELISA with FAM19A5 mutants M1-M8; format: binding

B1: 1-30: anti-FAM19A5 antibody, de-immunized variant of 3-2; VH SEQ ID NO: 235, VL SEQ ID NO: 240 (antibody, V domains shown)
VH: AVTLDESGGGLQTPGGALRLSCKASGFDFESFNMFWVRQAPGKGLEYVSQISSSEEDENYAPAVKGRATISRDNGQSTLYLQMNSLRAEDTGTYYCAKSSYDCPYGHCSSGVDSAGEIDAWGHGTEVIVSS
VL: ALTQPSSVSANPGETVKITCSGGGSEEEQYYYGWYQQKPGSAPVTLIYQDEERPSDIPSRFSGSTSGSTATLTITGVQAGDEADYYCGSWDSEDEDHFGAGTTLTVL
modifications: Low-PI VH, 1-30 VH, 1-17 VH, 1-32 VH, 4-11 VH, 6-10 VH; 1-30 VL
[1]
  number of CtBP2 puncta in inner hair cells: increased (as compared to the FAM19A5 protein alone group) and comparable to that of the control group
[2]
  ABR threshold values vs control IgG antibody: remained comparable
[3]
  number of CtBP2 puncta within the inner hair cells vs control human IgG: significant increase

B2: 2-13: anti-FAM19A5 antibody; VH SEQ ID NO: 35, VL SEQ ID NO: 39 (antibody, V domains shown)
VH: AVTLDESGGGLQTPGGALSLVCKASGFTFSSHGMFWVRQTPGKGLEYVAEITNDGSGTNYGSAVKGRATISRDNGQSTVRLQLNNLRAEDTGTYFCARSTYECPGGFSCWGDTGQIDAWGHGTEVIVSS
VL: ALTQPSSVSANPGETVKITCSGGSYSYGWFQQKSPGSALVTVIYWDDERPSDIPSRFSGALSGSTNTLTITGVQADDEAVYFCGTEDISGTAGVFGAGTTLTVL
modifications: 2-13 VH; 2-13 VL
[4]
  binding to FAM19A5 mutants M1-M3 and M5-M7: moderate to high binding
